Reference: patent US20140154243A1 (Amgen, published 2014)
Each block holds one binder with its values, some of them ahead of it.

Assays:
mouse HGF = target: T1, mouse HGF (mouse, UniProt Q08048 33-728); test: FACS bead assay: antibody incubated with the avidin fusion of mouse HGF, captured on biotin-coated beads; FITC anti-avidin (x) against PE goat anti-human F(ab')2 (y)
T1 construct: also called recombinant mouse HGF; mHGF
Procedure: After incubation, the fusion proteins in each sample were separately captured using biotin-coated beads (Spherotech Inc., Libertyville, Ill., Cat # TP-60-5). The resulting bead-protein complexes were labeled by adding FITC labeled anti-avidin antibody (Vector Lab, Burlingame, Calif., Cat. # SP-2040). The presence of antibodies to HGF was determined by adding phycoerythrin (PE) labeled goat anti-human F(ab′)2 antibody (Southern Biotech Associates, Inc, Birmingham, Ala., Cat #2043-09).
Those samples were then subjected to Fluorescence Activated Cell Sorter (FACS) analysis. Bead complexes labeled by FITC (which indicated the presence of avidin) and/or PE (which indicated the presence of antibody to HGF) were detected on a Becton Dickinson Bioscience FACScan (BD, Franklin Lakes, N.J.).

[1] = target: T2, human hepatocyte growth factor (HGF) (human, UniProt P14210 32-728); test: BIAcore 3000, kinetic method: antibody captured on immobilized Protein G, human HGF (0-100 nM) injected
T2 construct: Recombinant protein; The mature protein is a heterodimer of the alpha and beta subunits; also called human HGF; full length HGF
Excerpt: The running buffer for those analyses was PBS with 0.005% P20 surfactant (BIAcore, Inc. Piscataway, N.J.). Recombinant Protein G (Pierce, Rockford, Ill.) was immobilized to a research grade CM5 sensor chip (Biacore, Inc. Piscataway, N.J.) via primary amine groups using the Amine Coupling Kit (Biacore, Inc. Piscataway, N.J.), according to the manufacturer's instructions.
In six separate samples, about 200 resonance units (RU) of each of the six antibodies to HGF was separately attached to immobilized Protein G following the manufacturer's instructions. Samples comprising various concentrations (0-100 nM) of human HGF were injected over the bound antibody surface at a flow rate of 50 μl/min for 3 minutes. Antibody binding kinetic parameters including kₐ (association rate constant), kd (dissociation rate constant), and KD (dissociation equilibrium constant) were determined using the BIA evaluation 3.1 computer program (BIAcore, Inc. Piscataway, N.J.). Lower dissociation equilibrium constants indicate greater affinity of the antibody for HGF.

[2] = target: T2, human hepatocyte growth factor (HGF); test: BIAcore 3000, equilibrium/solution method: antibody (0.01-50 nM) incubated with human HGF (0.05 nM and 1 nM), free HGF measured on a chip carrying the same antibody
Procedure: That method was performed with a BIAcore®3000 (Biacore, Inc., Piscataway, N.J.) using PBS with 0.005% P20 surfactant (BIAcore, Inc. Piscataway, N.J.) as running buffer. The four antibodies to HGF were separately immobilized to research grade CM5 sensor chips (Biacore, Inc. Piscataway, N.J.) via primary amine groups using an Amine Coupling Kit (Biacore, Inc. Piscataway, N.J.) following the manufacturer's instructions.
In separate assays, each of the four antibodies to HGF, over a range of concentrations (from 0.01 nM to 50 nM) was separately incubated with each of two different concentrations (0.05 nM and 1 nM) of human HGF in PBS with 0.005% P-20 and 0.1 mg/mL BSA at room temperature for at least six hours. Each of those samples was then injected over a surface of a CM5 sensor chip onto which the same antibody to HGF had been immobilized. The binding signal obtained was proportional to the free HGF in solution. The dissociation equilibrium constant (KD) was obtained from nonlinear regression analysis of the competition curves using a dual-curve one-site homogeneous binding model (KinExA software, Sapidyne Instruments Inc., Boise Id.).

[3] = target: T2, human hepatocyte growth factor (HGF); test: neutralization ELISA (left table): inhibition of the binding of soluble Met (2 nM) to plate-coated HGF, detected with biotinylated anti-cMetR antibody and Eu-streptavidin; column head 'IC50 IP (nM)'
Procedure: A neutralization ELISA assay was developed to assess whether the antibodies discussed in Example 6 could interrupt Met-HGF binding. Delphia 96-well plates (Cat#: AAAND-0001, Wallac Inc., Gaithersburg, Md.) were coated with HGF by adding 100 μl of HGF at 6.25 μg/ml per well. The plates were incubated at 37° C. for 1 hour or at 4° C. overnight. The plates were then blocked with 5% BSA (Cat#50-61-00, KPL, Gaithersburg, Md.) in PBS containing 0.1% Tween 20 for 1 hour at room temperature with shaking.
Test samples were prepared by separately mixing soluble Met (2 nM, 0.256 μg/ml) with different concentrations of a particular antibody to HGF being tested. The concentrations tested were: 667 nM, 223 nM, 74.1 nM, 24.7 nM, 8.2 nM, 2.7 nM, 0.91 nM, 0.30 nM, 0.10 nM, and 0.034 nM. A volume of 100 μl of a test sample was added to each well of the plates. The plates were then incubated at 4° C. overnight and then washed 4 times with PBS containing 0.1% Tween 20. Next, 100 μl per well of Biotinylated anti-cMetR antibody (Cat#: BAF358, R&D Systems Inc., Minneapolis, Minn.) at 2 μg/ml, was added. […] The plates were then incubated for 2 hours with shaking, and were washed 4 times with PBS containing 0.1% Tween 20. Eu-streptavidin (1:1000 dilution in Assay buffer) (Cat#1244-360, Wallac Inc., Gaithersburg, Md.) was added and the plates were shaken at room temperature for 1 hour. The plates were then washed 4 times with PBS containing 0.1% Tween 20. Next, 100 μl of enhancement buffer (Wallac Inc., Cat#: 1244-105, Gaithersburg, Md.) was added. After at least for 5 minutes, the plates were read using Europium method on Victor 2 (1420 Multilabel Counter, Wallac Inc., Gaithersburg, Md.).
Percent inhibition of Met binding to HGF (i.e. neutralization) was calculated and IC₅₀ values were determined using the 4 parameter fit equation Excelfit, Version 2.0.6, (Microsoft Inc, Seattle, Wash.). In the presence of the antibodies to HGF discussed in Examples 6, Met binding to HGF was neutralized.

T2 sequence (P14210 32-728 limits assumed): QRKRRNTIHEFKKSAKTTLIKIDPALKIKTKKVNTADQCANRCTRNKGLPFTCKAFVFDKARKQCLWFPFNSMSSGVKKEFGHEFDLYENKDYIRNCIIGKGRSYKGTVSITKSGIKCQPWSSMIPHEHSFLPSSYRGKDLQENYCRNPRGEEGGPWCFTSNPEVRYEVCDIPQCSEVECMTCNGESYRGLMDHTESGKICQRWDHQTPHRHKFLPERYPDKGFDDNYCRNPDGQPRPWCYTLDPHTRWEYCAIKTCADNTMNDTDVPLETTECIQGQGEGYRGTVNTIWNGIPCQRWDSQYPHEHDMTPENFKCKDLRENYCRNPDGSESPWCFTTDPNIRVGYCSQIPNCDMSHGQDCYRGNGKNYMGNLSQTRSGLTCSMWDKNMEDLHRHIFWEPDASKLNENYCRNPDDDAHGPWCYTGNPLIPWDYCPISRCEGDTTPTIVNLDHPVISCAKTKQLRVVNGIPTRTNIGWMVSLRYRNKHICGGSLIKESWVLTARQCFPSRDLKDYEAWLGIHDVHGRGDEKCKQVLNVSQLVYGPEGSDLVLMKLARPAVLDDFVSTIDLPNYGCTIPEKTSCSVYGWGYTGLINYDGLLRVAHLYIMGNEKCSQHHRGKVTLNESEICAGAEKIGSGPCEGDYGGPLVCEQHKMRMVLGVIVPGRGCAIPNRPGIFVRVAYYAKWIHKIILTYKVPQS
T1 sequence (Q08048 33-728 limits assumed): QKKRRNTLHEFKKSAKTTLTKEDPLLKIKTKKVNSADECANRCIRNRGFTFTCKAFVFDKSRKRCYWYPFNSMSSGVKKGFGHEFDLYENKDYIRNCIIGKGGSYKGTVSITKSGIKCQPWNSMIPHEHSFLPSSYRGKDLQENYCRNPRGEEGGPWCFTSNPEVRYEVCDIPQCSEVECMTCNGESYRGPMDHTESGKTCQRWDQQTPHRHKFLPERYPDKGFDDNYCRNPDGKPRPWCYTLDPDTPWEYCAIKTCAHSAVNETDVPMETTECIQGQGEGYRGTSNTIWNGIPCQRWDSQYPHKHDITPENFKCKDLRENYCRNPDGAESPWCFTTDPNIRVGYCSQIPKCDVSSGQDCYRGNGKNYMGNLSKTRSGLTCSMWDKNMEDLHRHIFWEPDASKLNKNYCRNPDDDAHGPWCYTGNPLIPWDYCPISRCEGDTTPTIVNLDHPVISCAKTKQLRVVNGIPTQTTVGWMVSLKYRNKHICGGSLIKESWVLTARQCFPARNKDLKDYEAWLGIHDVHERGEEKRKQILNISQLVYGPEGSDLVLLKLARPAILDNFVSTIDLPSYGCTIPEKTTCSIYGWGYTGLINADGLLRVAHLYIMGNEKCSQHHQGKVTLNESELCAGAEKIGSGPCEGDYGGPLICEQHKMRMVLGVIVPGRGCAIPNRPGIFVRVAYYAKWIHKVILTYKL

binding result (mouse HGF): no binding | Kd [1]: ~0.099 nM | koff [1]: 2.7e-05 s⁻¹ | kon [1]: 270000 M⁻¹ s⁻¹ | Kd [2]: < 0.01 nM | IC50 [3]: 5.1 nM
B1: antibody 2.4.4 (antibody, human IgG2, kappa, V domains shown)
VH: QVQLKESGPGLVKPSQTLSLTCTVSGGSISSGVYYWSWIRQHPGKGLEWIGYFYYSGNTYHNPSLKSRVTISVDTSKNQFSLKLSSVTAADTAVYYCARDRSGYDHPDAFDIWGQGTMVTVSS
VL: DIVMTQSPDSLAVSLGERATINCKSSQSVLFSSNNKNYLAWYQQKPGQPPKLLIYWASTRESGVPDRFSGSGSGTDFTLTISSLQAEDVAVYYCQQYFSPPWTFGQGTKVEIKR
notes: also called FITC-labeled antibody 2.4.4

binding result (mouse HGF): no binding | Kd [1]: ~0.22 nM | koff [1]: 2.8e-05 s⁻¹ | kon [1]: 130000 M⁻¹ s⁻¹ | Kd [2]: 0.054 nM | IC50 [3]: 2.1 nM
B2: antibody 2.12.1 (antibody, human IgG2, kappa, V domains shown)
VH: QVQLQESGPGLVKPSETLSLTCTVSGGSISIYYWSWIRQPPGKGLEWIGYVYYSGSTNYNPSLKSRVTISVDTSKNQFSLKLNSVTAADTAVYYCARGGYDFWSGYFDYWGQGTLVTVSS
VL: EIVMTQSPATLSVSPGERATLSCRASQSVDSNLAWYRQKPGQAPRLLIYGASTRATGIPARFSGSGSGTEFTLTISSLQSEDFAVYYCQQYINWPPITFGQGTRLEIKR
